B1: HDV Ribozyme (parent)
chain: GGCCGGCAUGGUCCCAGCCUCCUCGCUGGCGCCGGCUGGGCAACAUUCCGAGGGGACCGUCCCCUCGGUAAUGGCGAAUGGGACCCA

The data set covers variants of B1. The data set is described as follows: self-cleavage, relative activity (ratio to wild type); higher = more cleavage; co-transcriptional.
Consider G5A U37G, for which the self-cleavage is 0.0504. For G5C C57G, the self-cleavage was 0.35. In the case of G5C C57A it was 0.111; in that of G5A G31C, 0.095.

For G5A C19U, the self-cleavage amounted to 0. The figure for G5A C19A is 0.0723; for G5C C85A it is 0.199. In the case of G5C C85G it was 0.0755. In the case of G5U A16G, the self-cleavage came to 0.175. Consider G5C A83C, for which the self-cleavage is 0.

On to G5C A83G, for which the self-cleavage stood at 0.0519. In the case of C4U G80U it was 0.0683; in that of C4U G80C, 0.157; in that of G5A U12G, 0.145.

Turning to G5A U12C, the self-cleavage was found to be 0.0615. On to G5A U12A, for which the self-cleavage worked out at 0. In the case of G5A G76U it was 0.148; in that of G5A G76C, 0.0959; in that of G5A G17U, 0.123.

For G5A U27G, the self-cleavage came out at 0.217. G5A U27C: the self-cleavage is 0.0594.

On to G5A U27A, for which the self-cleavage was 0.504. G5A C18A: the self-cleavage is 0.0875. Turning to G5C A42U, the self-cleavage worked out at 0. In the case of G5C A42C it was 0.115; in that of G5A C14U, 0.119; in that of G5C U79A, 0.185. The figure for G5C U79C is 0.141; for G5C G53U it is 0.291. G5A G55C: the self-cleavage worked out at 0.104. The figure for G5C C36A is 0.0489. The figure for G5C C36G is 0.0978; for G5C C18A it is 0.0639; for G5C C18G it is 0.262. Regarding G5A C58G, the self-cleavage was determined as 0.119. In the case of G5A C58A it was 0.253; in that of G5A C58U, 0.252; in that of G5U A56G, 0.391. The figure for G5C C48A is 0.0875; for G5C G35C it is 0.147.

Take G5C C26A: the self-cleavage was 0.508. The figure for G5A U60C is 0.353; for G5A G74A it is 0.0326; for G5A G74U it is 0.0326. In the case of G5C G38A it was 0.199. Consider G5C G38C, for which the self-cleavage worked out at 0.108.

On to G5A U47C, for which the self-cleavage came to 0.0615. In the case of G5C U65G, the self-cleavage is 0.0978. Take G5C U65C: the self-cleavage turned out to be 0.222. The figure for C4U G73C is 0.242; for C4U G73U it is 0.138. The figure for G5C A43G is 0; for G5C A43C it is 0. In the case of G5A C15A it was 0.162. Take G5A G50C: the self-cleavage was 0.225. In the case of C4U G40C it was 0.128; in that of C4U G74C, 0.0791. In the case of C4U G74A it was 0.197.

Regarding C4U U65A, the self-cleavage was determined as 0.727. The figure for C4U U65G is 0.656; for C4U U65C it is 1.06.

As to G5A C57A, the self-cleavage is 0.0449. With G5A C57G, the self-cleavage was 0.138. In the case of G5A C57U it was 0.106.

For the variant G5A G81C, the self-cleavage is 0.0791.

For the variant G5U A51U, the self-cleavage was determined as 0.688. The figure for G5U A51G is 0.875; for G5C G25A it is 0.0639; for G5C G25C it is 0. As to G5C U72A, the self-cleavage worked out at 0.095. In the case of G5C U72G it was 0.0831. In the case of G5A A56C it was 0.107. On to G5C C14G, for which the self-cleavage was 0.111.

C4U U79A: the self-cleavage came out at 0.755. In the case of C4U G68U it was 0.657. G5C G17C: the self-cleavage is 0.151. As to G5C G50C, the self-cleavage came out at 0.151. In the case of G5A G6U, the self-cleavage was determined as 0.0923. The figure for G5A G6C is 0.0536; for G5A G34U it is 0.0282. The figure for G5C A78G is 0; for G5C A78C it is 0.0615; for G5C A51U it is 0.298. In the case of G5C A51C it was 0.293; in that of G5C U20A, 0. On to G5C U20G, for which the self-cleavage was found to be 0. The figure for C4U U20A is 0.0554; for C4U U20G it is 0; for C4U U20C it is 0.0437.

For the variant G5A A42C, the self-cleavage is 0.135. On to G5A A42U, for which the self-cleavage amounted to 0.111. In the case of G5A A42G it was 0; in that of G5A C44G, 0.0369; in that of C4U U9A, 0.739. The figure for C4U U9G is 0.782; for C4U U9C it is 0.727. Consider C4U U69A, for which the self-cleavage turned out to be 0.623. The figure for G5A C33U is 0.831; for G5A C33A it is 0.219; for G5C C64U it is 0.332. The figure for G5A U72C is 0.142; for G5A U72G it is 0.147.

For G5A U72A, the self-cleavage amounted to 0.101. In the case of G5A U9G it was 0.111; in that of G5C C19G, 0; in that of G5C C19A, 0.

With G5C C19U, the self-cleavage was determined as 0.0536. In the case of G5C A87G, the self-cleavage amounted to 0.124. In the case of G5A G35C it was 0.119. Take G5A G35A: the self-cleavage was 0.0692. Take G5A G68U: the self-cleavage came out at 0.146. With G5U C30G, the self-cleavage is 0. Consider G5U C30U, for which the self-cleavage came out at 0.237.

In the case of G5C C62G, the self-cleavage was determined as 0.145. As for G5C G28C, the self-cleavage was found to be 0.208. As for G5C G28U, the self-cleavage was 0.

As for G5C G28A, the self-cleavage was found to be 0.104.

Turning to G5A C84U, the self-cleavage was 0.117. In the case of G5A C84A it was 0.172; in that of G5C C32A, 0.0615; in that of G5A C62A, 0. With G5A C62U, the self-cleavage was determined as 0.16.

As to G5U A87U, the self-cleavage was determined as 0.293. The figure for G5C U37A is 0.104. Regarding G5A G67C, the self-cleavage stood at 0.162. Consider G5C G59C, for which the self-cleavage came to 0.0791.

For the variant G5A C64U, the self-cleavage amounted to 0.359. The figure for G5A C64G is 0.237; for G5A C64A it is 0.198; for G5A A70G it is 0.0504. The figure for G5A A70C is 0.166. In the case of G5C U12C it was 0; in that of G5C U27A, 0.227; in that of G5C U27C, 0. Consider G5C G67C, for which the self-cleavage was 0.252. Consider G5C G67U, for which the self-cleavage was determined as 0.248. The figure for G5C G67A is 0.353.

Consider G5C G10A, for which the self-cleavage worked out at 0.208. In the case of G5U A83C it was 0; in that of G5U A83U, 0. Turning to G5U A78G, the self-cleavage is 0.332. With C4U G76A, the self-cleavage is 0.443. On to G5C G80A, for which the self-cleavage was 0.256. Take G5C G73A: the self-cleavage was found to be 0.0554.

On to G5C G73C, for which the self-cleavage turned out to be 0.0639.

In the case of G5U C21A, the self-cleavage turned out to be 0. The figure for G5A G40U is 0.119; for G5C G40C it is 0.256; for G5C G40A it is 0.208. For the variant G5C C61A, the self-cleavage came out at 0.432.

For the variant G5A G80C, the self-cleavage stood at 0.0563.

In the case of G5C A70G, the self-cleavage is 0.158. The figure for G5C A70U is 0; for G5C A70C it is 0.158. The figure for G5U C26G is 0.615; for G5U C26U it is 0.864. Take G5U C32U: the self-cleavage amounted to 0.104. The figure for C4U G52A is 0.443; for C4U G52U it is 0.831. The figure for C4U G50A is 0.686; for C4U G50C it is 0.917; for G5C C41U it is 0.277. The figure for G5C C41G is 0; for C4U G53C it is 0.782; for C4U G53A it is 0.665. For the variant G5C C84G, the self-cleavage is 0.332. The figure for G5A A78U is 0.101.

For the origin of these results see the RNAGym collection of RNA variant scans (doi:10.7554/elife.80360).
